B1: FIP3_(206–270), EF-hand pair of Rab11 family-interacting protein 3 (domain or fragment, human, UniProt O75154-1 206-270, looked up)
chain: RLRAVFDALDGDGDGFVRIEDFIQFATVYGAEQVKDLTKYLDPSGLGVISFEDFYQGITAIRNGD
notes: Cloned into pMAL-c2X
B2: MBP-CRACR2a_(47–122), EF-hand pair of calcium release-activated calcium channel regulator 2A (domain or fragment, human, UniProt Q9BSW2-1 47-122, looked up)
chain: GQLVMLRKAQEFFQTCDAEGKGFIARKDMQRLHKELPLSLEELEDVFDALDADGNGYLTPQEFTTGFSHFFFSQNN
notes: Cloned into pMAL-c2X; the MBP tag was not removed for the ITC experiments; also called Ca^2+-CRACR2a; not shown: MBP, N-terminal, kept
B3: NIN_(1–87), first EF-hand pair of Ninein (domain or fragment, human, UniProt Q8N4C6-1 1-87, looked up)
chain: MDEVEQDQHEARLKELFDSFDTTGTGSLGQEELTDLCHMLSLEEVAPVLQQTLLQDNLLGRVHFDQFKEALILILSRTLSNEEHFQE
notes: NIN (Ninein), human, UniProt Q8N4C6-1, residues 1-87 (EF-hand pair); Cloned into pMAL-c2X

Experiments:
Settings in all cases: both partners purified
[1] = biological target: T1, MBP-LIC1FL, full-length dynein light intermediate chain-1 (human, UniProt Q9Y6G9 1-523); experiment: ITC; EF-hand pairs titrated into MBP-LIC1FL; 20 mM HEPES (pH 7.5), 100 mM NaCl, 0.5 mM TCEP, 5 mM CaCl2; 20 or 30 °C
T1 construct: cytoplasmic dynein-1 light intermediate chain-1 (LIC1), human, full length; also called MBP-LICFL; full-length LIC1

[2] = biological target: B2; experiment: ITC; EF-hand pairs titrated into LIC1_(433–458); 20 mM HEPES (pH 7.5), 100 mM NaCl, 0.5 mM TCEP; 5 mM CaCl2 or 5 mM EGTA as indicated in the figure; 20 or 30 °C
[3] = biological target: B3; experiment: as above
[4] = biological target: B1; experiment: as above

T1 sequence (Q9Y6G9 whole entry): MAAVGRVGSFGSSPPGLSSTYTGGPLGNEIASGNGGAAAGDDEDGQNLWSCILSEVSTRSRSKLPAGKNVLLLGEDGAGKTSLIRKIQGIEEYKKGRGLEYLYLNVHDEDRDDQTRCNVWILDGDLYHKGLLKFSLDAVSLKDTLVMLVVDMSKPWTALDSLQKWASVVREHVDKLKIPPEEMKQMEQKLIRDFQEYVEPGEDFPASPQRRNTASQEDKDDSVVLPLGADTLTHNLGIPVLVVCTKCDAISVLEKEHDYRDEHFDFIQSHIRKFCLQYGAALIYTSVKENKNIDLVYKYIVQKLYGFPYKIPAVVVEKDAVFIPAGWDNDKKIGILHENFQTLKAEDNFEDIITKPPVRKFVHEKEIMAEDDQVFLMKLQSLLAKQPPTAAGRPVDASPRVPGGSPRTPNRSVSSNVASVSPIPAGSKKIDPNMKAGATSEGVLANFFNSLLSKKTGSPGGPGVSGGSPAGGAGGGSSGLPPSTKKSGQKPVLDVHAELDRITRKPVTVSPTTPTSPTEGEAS

Row | Kd [1] [µM] | stoichiometry N [1] | Kd [2] [µM] | Kd [3] [µM] | Kd [4] [µM] | Binder
1 | ~6.1 | ~1 | – | – | – | B1
2 | ~3.6 | ~1 | – | – | – | B2
3 | – | – | ~1.4 | ~5.4 | ~2 | NMKAGATSEGVLANFFNSLLSKKTGS (peptide, UniProt Q9Y6G9 433-458, looked up, Its concentration was determined with fluorescamine-labeled peptide; also called LIC1 helix; source: peptide after reverse-phase purification) [LIC1_(433–458), amphipathic helix of the dynein light intermediate chain-1]
4 | ~12 | ~1 | – | – | – | B3

Reference: paper PMC7655957, “A tunable LIC1-adaptor interaction modulates dynein activity in a cargo-specific manner” (Nature Communications, 2020)
